For one assay, the target named is T1, MASP-2 fragments (Homo sapiens, UniProt O00187).
T1 construct: T7-Tag fragment Ala-Ser-Met (N, cleaved yes); made in house
Description: Inhibition of the enzymatic activities of the MASP-2 fragments by C1-inhibitor and alpha-2-macroglobulin. It counts as biochemical. The settings on record: for molar excess of inhibitor that abolishes all cleavages by the MASP-2 fragments: preincubation, C2, C3, C3(NH3), C4 substrates. On the procedure:
(§1) Reactivity toward C1-inhibitor and alpha-2-macroglobulin—Inhibition of the enzymatic activities of the MASP fragments by C1-inhibitor and alpha-2-macroglobulin were tested as follows. MASP-1 and MASP-2 fragments at concentrations selected in the C2, C3, C3(NH3) and C4 cleavage tests were incubated at 37° C. with excess molar ratios of either C1-inhibitor, alpha-2-macroglobulin, or buffer in 20 mM HEPES, 140 mM NaCl, pH 7.4 for 40 minutes. Complement substrates C2, C3, C3(NH3) or C4 were added at typical concentrations of 0.5-1 μM and the samples were further incubated for 20 minutes. The cleaved and uncleaved chains were visualized by reducing SDS-PAGE and the degree of inhibition was compared.

In another assay the target is T2, MASP-1 CCP1-CCP2-SP (Homo sapiens, UniProt P48740).
T2 construct: made in house
T2 sequence (P48740 298-699): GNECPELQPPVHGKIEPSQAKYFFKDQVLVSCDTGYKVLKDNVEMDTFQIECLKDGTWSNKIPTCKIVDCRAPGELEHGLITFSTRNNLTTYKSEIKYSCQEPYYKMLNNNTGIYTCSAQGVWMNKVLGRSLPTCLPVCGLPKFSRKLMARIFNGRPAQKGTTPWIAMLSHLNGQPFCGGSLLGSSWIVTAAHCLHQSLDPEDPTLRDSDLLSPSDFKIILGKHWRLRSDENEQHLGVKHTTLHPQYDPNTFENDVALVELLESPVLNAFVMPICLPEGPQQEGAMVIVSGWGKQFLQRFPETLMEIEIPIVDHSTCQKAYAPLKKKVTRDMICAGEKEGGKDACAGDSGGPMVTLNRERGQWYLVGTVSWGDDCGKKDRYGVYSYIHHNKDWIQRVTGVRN
Description: Inhibition of the enzymatic activities of the MASP-1 fragment by C1-inhibitor and alpha-2-macroglobulin. In kind it is biochemical. On the procedure: as §1

The mark [1] stands for this setting: marginal molar excess over the enzyme.

The text below walks through data of patent US8173397B2, “Folded recombinant catalytic fragments of multidomain serine proteases, preparation and uses thereof” (TargetEx Kft., priority 2002, dated 2012).

T1 sequence (O00187 445-686 limits assumed): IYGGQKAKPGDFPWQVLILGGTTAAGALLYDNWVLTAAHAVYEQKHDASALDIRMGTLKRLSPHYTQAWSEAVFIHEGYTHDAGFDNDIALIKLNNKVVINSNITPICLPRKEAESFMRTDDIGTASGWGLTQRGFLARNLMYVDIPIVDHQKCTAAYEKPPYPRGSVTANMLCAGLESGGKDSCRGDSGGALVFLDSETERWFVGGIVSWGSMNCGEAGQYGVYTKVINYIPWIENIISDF
T1 sequence (O00187 291-444 partner limits assumed): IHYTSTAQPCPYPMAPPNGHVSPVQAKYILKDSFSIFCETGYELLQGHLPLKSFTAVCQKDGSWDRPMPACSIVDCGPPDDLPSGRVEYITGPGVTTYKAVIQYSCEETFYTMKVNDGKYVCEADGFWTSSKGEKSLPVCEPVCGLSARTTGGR

“C1-inhibitor: serpin C1-inhibitor purified from human serum”: the “effect on proteolytic activity of MASP-2 on all substrates, in words” value with MASP-2 fragments (setting [1]) is recorded as “completely abolished”. In the assay with MASP-2 fragments, the “molar excess of inhibitor that abolishes all cleavages by the MASP-2 fragments” value was 1-3 fold. Moreover, the “effect on proteolytic activity of MASP-1 on all substrates, in words” value with MASP-1 CCP1-CCP2-SP (setting [1]) is “completely abolished”.

On to “alpha-2-macroglobulin: human alpha-2-macroglobulin isolated from plasma”, for which the “molar excess over the MASP-2 fragments capable of significantly hindering C2 and C4 cleavage” value in the assay with MASP-2 fragments (C2 and C4 cleavage) is given as 40 fold. Further, the “molar excess over MASP-2 CCP1-CCP2-SP that blocks C3 cleavages” value in the assay with MASP-2 fragments (C3 cleavage) was 1-3 fold. Further, in the assay with MASP-2 fragments, the “molar excess of inhibitor that abolishes all cleavages by the MASP-2 fragments” value was 40 fold. Moreover, the “molar excess that completely blocks cleavage of C2 by the MASP-1 CCP1-CCP2-SP fragment” value with MASP-1 CCP1-CCP2-SP (C2 cleavage) was 1-3 fold. For the same substance, in the assay with MASP-1 CCP1-CCP2-SP (C3 cleavage), the “molar excess over MASP-1 CCP1-CCP2-SP that blocks C3 cleavages” value is listed as 1-3 fold.
